# Data reported in article PMC9482650, “Quantitative fragmentomics allow affinity mapping of interactomes” (Nature Communications, 2022).
# T1: GRIP1_5, Q9Y3R0
# T1 sequence (Q9Y3R0 568-668, limits assumed, looked up): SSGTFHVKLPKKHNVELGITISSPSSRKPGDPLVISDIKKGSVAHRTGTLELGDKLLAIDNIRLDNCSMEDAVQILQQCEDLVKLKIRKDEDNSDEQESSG
# T2: ARHGEF11, O15085
# T2 sequence (O15085 42-136, limits assumed, looked up): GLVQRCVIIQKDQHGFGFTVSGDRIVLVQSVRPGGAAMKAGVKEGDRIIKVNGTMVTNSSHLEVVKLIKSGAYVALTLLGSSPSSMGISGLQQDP
# T3: LNX2_2, Q8N448
# T3 sequence (Q8N448 334-432, limits assumed, looked up): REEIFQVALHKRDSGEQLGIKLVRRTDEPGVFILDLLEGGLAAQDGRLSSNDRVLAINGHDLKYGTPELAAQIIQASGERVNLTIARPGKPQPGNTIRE
# T4: SNTG1, Q9NSN8
# T4 sequence (Q9NSN8 52-150, limits assumed, looked up): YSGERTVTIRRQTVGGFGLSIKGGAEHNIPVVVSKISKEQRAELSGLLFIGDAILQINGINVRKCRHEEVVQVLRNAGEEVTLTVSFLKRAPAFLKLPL
# T5: RHPN1, Q8TCX5
# T5 sequence (Q8TCX5 508-602, limits assumed, looked up): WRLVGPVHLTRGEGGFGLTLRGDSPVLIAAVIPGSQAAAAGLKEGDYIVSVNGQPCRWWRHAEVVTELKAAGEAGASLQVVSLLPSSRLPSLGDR
# T6: DLG3_1, Q92796
# T6 sequence (Q92796 125-227, limits assumed, looked up): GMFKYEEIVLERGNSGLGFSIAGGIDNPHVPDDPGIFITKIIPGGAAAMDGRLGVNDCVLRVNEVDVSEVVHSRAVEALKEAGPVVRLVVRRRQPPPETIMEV
# T7: HTRA4, P83105
# T7 sequence (P83105 378-476, limits assumed, looked up): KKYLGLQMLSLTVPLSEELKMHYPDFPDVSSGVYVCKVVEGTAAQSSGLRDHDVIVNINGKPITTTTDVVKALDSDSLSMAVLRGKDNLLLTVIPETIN
# T8: NHERF3_1, Q5T2W1
# T8 sequence (Q5T2W1 4-100, limits assumed, looked up): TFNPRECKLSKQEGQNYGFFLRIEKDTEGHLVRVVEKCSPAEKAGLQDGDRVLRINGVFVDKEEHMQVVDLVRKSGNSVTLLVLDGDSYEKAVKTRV
# T9: GRIP1_3, Q9Y3R0
# T9 sequence (Q9Y3R0 247-346, limits assumed, looked up): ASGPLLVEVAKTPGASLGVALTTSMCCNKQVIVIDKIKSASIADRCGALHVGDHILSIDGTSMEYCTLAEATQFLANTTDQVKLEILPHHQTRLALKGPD
# T10: APBA2_1, Q99767
# T10 sequence (Q99767 563-664, limits assumed, looked up): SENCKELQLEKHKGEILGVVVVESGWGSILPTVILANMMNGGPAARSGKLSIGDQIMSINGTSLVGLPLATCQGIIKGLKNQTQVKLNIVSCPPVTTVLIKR
# T11: DVL3, Q92997
# T11 sequence (Q92997 244-331, limits assumed, looked up): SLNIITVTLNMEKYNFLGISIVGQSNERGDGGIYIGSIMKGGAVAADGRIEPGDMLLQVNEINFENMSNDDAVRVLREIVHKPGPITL
# Assays:
# Test in all cases: holdup assay
# Design in all cases: key: below the threshold = too weak to quantify, mostly under pKd 3.1 to 4
# [1] = target: T1, GRIP1_5, Q9Y3R0
# [2] = target: MAGI1_2, Q96QZ7
# [3] = target: T2, ARHGEF11, O15085
# [4] = target: MAGI2_4, Q86UL8
# [5] = target: FRMPD2_3, Q68DX3
# [6] = target: Inadl_5, Q8NI35
# [7] = target: Inadl_2, Q8NI35
# [8] = target: T3, LNX2_2, Q8N448
# [9] = target: PDZRN4_1, Q6ZMN7
# [10] = target: T4, SNTG1, Q9NSN8
# [11] = target: DLG1_1, Q12959
# [12] = target: LDB3, O75112
# [13] = target: TJP2_1, Q9UDY2
# [14] = target: DLG4_1, P78352
# [15] = target: T5, RHPN1, Q8TCX5
# [16] = target: T6, DLG3_1, Q92796
# [17] = target: MAGI1_1, Q96QZ7
# [18] = target: FRMPD4, Q14CM0
# [19] = target: GRIP2_5, Q9C0E4
# [20] = target: T7, HTRA4, P83105
# [21] = target: T8, NHERF3_1, Q5T2W1
# [22] = target: Inadl_4, Q8NI35
# [23] = target: T9, GRIP1_3, Q9Y3R0
# [24] = target: Inadl_6, Q8NI35
# [25] = target: MAGI2_6, Q86UL8
# [26] = target: T10, APBA2_1, Q99767
# [27] = target: T11, DVL3, Q92997
# [28] = plain residues with an end cap or a label only (N-terminal biotin on a linker: ttds)
# [29] = plain residues with an end cap or a label only (N-terminal biotin on a linker: ahx)
# Chain of MAGI2_6, Q86UL8 (Q86UL8 1141-1229): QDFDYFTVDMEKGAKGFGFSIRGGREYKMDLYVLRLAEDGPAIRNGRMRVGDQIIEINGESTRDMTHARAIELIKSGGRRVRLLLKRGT
# Chain of Inadl_4, Q8NI35 (Q8NI35 547-651): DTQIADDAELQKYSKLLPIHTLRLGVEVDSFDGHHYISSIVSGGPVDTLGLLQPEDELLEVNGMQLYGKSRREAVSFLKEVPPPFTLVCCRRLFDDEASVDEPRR
# Chain of LDB3, O75112 (O75112 1-94): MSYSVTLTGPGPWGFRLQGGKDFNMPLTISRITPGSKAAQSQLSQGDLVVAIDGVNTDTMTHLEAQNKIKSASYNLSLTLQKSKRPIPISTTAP
# Chain of TJP2_1, Q9UDY2 (Q9UDY2 24-128): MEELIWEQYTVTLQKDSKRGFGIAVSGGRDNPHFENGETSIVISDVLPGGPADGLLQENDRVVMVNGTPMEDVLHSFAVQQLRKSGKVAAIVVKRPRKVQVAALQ
# Chain of Inadl_2, Q8NI35 (Q8NI35 238-335): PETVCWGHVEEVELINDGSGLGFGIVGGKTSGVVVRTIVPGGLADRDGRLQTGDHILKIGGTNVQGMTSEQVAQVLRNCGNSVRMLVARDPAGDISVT
# Chain of GRIP2_5, Q9C0E4 (Q9C0E4 544-642): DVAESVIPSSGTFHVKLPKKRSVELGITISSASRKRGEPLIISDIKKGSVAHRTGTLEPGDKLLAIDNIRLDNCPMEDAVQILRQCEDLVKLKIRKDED
# Chain of MAGI2_4, Q86UL8 (Q86UL8 772-865): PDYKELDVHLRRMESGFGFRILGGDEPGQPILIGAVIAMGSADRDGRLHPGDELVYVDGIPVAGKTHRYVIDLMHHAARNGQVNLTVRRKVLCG
# Chain of FRMPD4, Q14CM0 (Q14CM0 67-160): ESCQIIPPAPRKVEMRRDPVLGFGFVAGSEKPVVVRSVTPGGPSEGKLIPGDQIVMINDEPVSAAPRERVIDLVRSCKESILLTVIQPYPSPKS
# Chain of MAGI1_1, Q96QZ7 (Q96QZ7 1-106): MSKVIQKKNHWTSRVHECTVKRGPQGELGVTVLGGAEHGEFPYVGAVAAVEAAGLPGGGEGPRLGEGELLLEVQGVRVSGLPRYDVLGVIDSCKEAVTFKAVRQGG
# Chain of DLG4_1, P78352 (P78352 62-152): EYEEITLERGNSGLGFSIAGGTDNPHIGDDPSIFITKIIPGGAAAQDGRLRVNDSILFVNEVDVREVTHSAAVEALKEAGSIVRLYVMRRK
# Chain of PDZRN4_1, Q6ZMN7 (Q6ZMN7 213-318): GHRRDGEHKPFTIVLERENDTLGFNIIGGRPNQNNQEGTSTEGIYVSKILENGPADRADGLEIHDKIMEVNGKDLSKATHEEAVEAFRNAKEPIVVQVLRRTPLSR
# Chain of Inadl_5, Q8NI35 (Q8NI35 673-780): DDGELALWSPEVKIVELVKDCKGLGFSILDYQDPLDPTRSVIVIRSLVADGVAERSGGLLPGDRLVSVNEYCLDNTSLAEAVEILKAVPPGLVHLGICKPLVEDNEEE
# Chain of FRMPD2_3, Q68DX3 (Q68DX3 1073-1166): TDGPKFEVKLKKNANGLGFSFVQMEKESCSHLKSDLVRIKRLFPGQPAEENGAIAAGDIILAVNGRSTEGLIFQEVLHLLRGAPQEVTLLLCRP
# Chain of MAGI1_2, Q96QZ7 (Q96QZ7 456-580): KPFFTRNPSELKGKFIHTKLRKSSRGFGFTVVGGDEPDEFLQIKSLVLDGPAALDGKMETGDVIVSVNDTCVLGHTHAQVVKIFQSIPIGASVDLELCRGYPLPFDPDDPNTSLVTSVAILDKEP
# Chain of Inadl_6, Q8NI35 (Q8NI35 1058-1167): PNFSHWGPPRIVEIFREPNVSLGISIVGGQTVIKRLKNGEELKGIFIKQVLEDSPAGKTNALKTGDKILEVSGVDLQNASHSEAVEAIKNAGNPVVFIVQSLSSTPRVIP
binder,measurement,setting,value
"CLDTSRETDL [KCNA5, P22460]",pKd,[1]; [28],below the threshold
same,pKd,[2]; [28],below the threshold
same,pKd,[3]; [28],4
same,pKd,[4]; [28],below the threshold
same,pKd,[5]; [28],below the threshold
same,pKd,[6]; [28],below the threshold
same,pKd,[7]; [28],below the threshold
same,pKd,[8]; [28],below the threshold
same,pKd,[9]; [28],3.98
same,pKd,[10]; [28],4.6
same,pKd,[11]; [28],3.79
same,pKd,[12]; [28],below the threshold
same,pKd,[13]; [28],below the threshold
same,pKd,[14]; [28],3.84
same,pKd,[15]; [28],4.46
same,pKd,[16]; [28],3.49
same,pKd,[17]; [28],below the threshold
same,pKd,[18]; [28],3.49
same,pKd,[19]; [28],below the threshold
same,pKd,[20]; [28],below the threshold
same,pKd,[21]; [28],4.43
same,pKd,[22]; [28],below the threshold
same,pKd,[23]; [28],3.66
same,pKd,[24]; [28],3.93
same,pKd,[25]; [28],4.95
same,pKd,[26]; [28],below the threshold
same,pKd,[27]; [28],below the threshold
"LCKSHAFSHV [PDLIM7, Q9NR12;Q9NR12-1]",pKd,[1]; [29],below the threshold
same,pKd,[4]; [29],below the threshold
same,pKd,[5]; [29],below the threshold
same,pKd,[6]; [29],below the threshold
same,pKd,[7]; [29],below the threshold
same,pKd,[8]; [29],below the threshold
same,pKd,[9]; [29],below the threshold
same,pKd,[10]; [29],below the threshold
same,pKd,[11]; [29],below the threshold
same,pKd,[12]; [29],below the threshold
same,pKd,[13]; [29],4.09
same,pKd,[14]; [29],below the threshold
same,pKd,[15]; [29],4.38
same,pKd,[16]; [29],below the threshold
same,pKd,[17]; [29],below the threshold
same,pKd,[18]; [29],below the threshold
same,pKd,[19]; [29],below the threshold
same,pKd,[20]; [29],below the threshold
same,pKd,[21]; [29],below the threshold
same,pKd,[22]; [29],below the threshold
same,pKd,[23]; [29],below the threshold
same,pKd,[24]; [29],below the threshold
same,pKd,[26]; [29],below the threshold
same,pKd,[27]; [29],below the threshold
"EDEDEQVSAV [RAPGEF2, Q9Y4G8]",pKd,[1]; [29],below the threshold
same,pKd,[2]; [29],below the threshold
same,pKd,[3]; [29],4.1
same,pKd,[4]; [29],below the threshold
same,pKd,[5]; [29],below the threshold
same,pKd,[6]; [29],below the threshold
same,pKd,[7]; [29],below the threshold
same,pKd,[8]; [29],below the threshold
same,pKd,[9]; [29],below the threshold
same,pKd,[10]; [29],4.29
same,pKd,[11]; [29],below the threshold
same,pKd,[12]; [29],below the threshold
same,pKd,[13]; [29],below the threshold
same,pKd,[14]; [29],3.59
same,pKd,[15]; [29],4.23
same,pKd,[16]; [29],below the threshold
same,pKd,[17]; [29],below the threshold
same,pKd,[18]; [29],below the threshold
same,pKd,[19]; [29],below the threshold
same,pKd,[20]; [29],below the threshold
same,pKd,[21]; [29],below the threshold
same,pKd,[22]; [29],below the threshold
same,pKd,[23]; [29],below the threshold
same,pKd,[24]; [29],3.81
same,pKd,[25]; [29],4.57
same,pKd,[26]; [29],below the threshold
same,pKd,[27]; [29],below the threshold
"KKNKDKEYYV [NRXN1, Q9ULB1]",pKd,[1]; [29],below the threshold
same,pKd,[2]; [29],below the threshold
same,pKd,[3]; [29],below the threshold
same,pKd,[4]; [29],below the threshold
same,pKd,[5]; [29],4.17
same,pKd,[6]; [29],4.25
same,pKd,[7]; [29],4.55
same,pKd,[8]; [29],4.16
same,pKd,[9]; [29],below the threshold
same,pKd,[10]; [29],below the threshold
same,pKd,[11]; [29],below the threshold
same,pKd,[12]; [29],below the threshold
same,pKd,[13]; [29],below the threshold
same,pKd,[14]; [29],below the threshold
same,pKd,[15]; [29],below the threshold
same,pKd,[16]; [29],below the threshold
same,pKd,[17]; [29],below the threshold
same,pKd,[18]; [29],3.58
same,pKd,[19]; [29],below the threshold
same,pKd,[20]; [29],below the threshold
same,pKd,[21]; [29],3.84
same,pKd,[22]; [29],below the threshold
same,pKd,[23]; [29],below the threshold
same,pKd,[24]; [29],below the threshold
same,pKd,[25]; [29],below the threshold
same,pKd,[26]; [29],below the threshold
same,pKd,[27]; [29],3.61
